A short description of the series: soluble on expression in E. coli; label from the status in PepcDB or PDB records.
Regarding “MDNNVEDKKEAMLKRLANRHEKRLLDQVKSNTKKIDLRATERAFLESSPTSMNMRTPLNPSISSSVSDSPILSYDEKANKQIIALATWCNTMMELDVSEEMDLGESKAEACRNIQKMLKKRSDTSEVENTQENARRRYQRIFEKNDPEVVKKKCKQLLDDSGMDASIKDLLSKNNVAIRKEHAVYNDIGLQTTLLHTFLSFHPAWLKTALEAIFNTRIDAQPKHLMKKLSQFFLDLVFSNPTMLKNKKFAQGSGKPIITEAGKEALHKHFLSVSMKLMFLIETAHTHRVIPNLTRIFTKSSHFNCLDDVFSELTKELLTGSSATFKKAFAKVGFIPTYRQSFIENYDYQAKGFSDFSDGLILAKLLETVGEMPHGQILLKLRDPAGDRIRKIGNVKIVLQEMSSLGVPTDNVNAESIVGGKKDEILSILWAIIGVRVAKEQRIKVTRVSEERTPKKRRSAVHDDMSSEVLKMCKIYGRQMEIEVMDLDSLSDGCLLAKLWTTFGTNSTPIQDYDGLSLWEKVVSVAELELCIQRGLDQNMALFVKMFLERLGMIQDLNEKATKIQRMWKAYVQRKNTPKLYFIVQQLLADSSIPRNRSVSPFSNNVTFTVPRTPRNNILTERPSLSQIPSSRQSMDSTFNDATFTVSRDSIESMNKMQKTPLRGTFTRKTIAMVIEEEDDSENNETVVPSTLKKRTVVRMEHNAEVFREQDEDDENQDKDTVAPSAENLDSPPSDIPLETLSSIPSASQSAIFLQDSETGKEMHVPKAEDVGVVVLEASDSPVALEGNNEASYDGQKIENLETFEIKEGKTQEDLPSKSPMDPTQTSGSPLVEFRMTEEQERLEMLFQSLSEDQKNFVKTNNLSVSIEDDANTPELRRILRQTRELKRKQQEIARKLGNIERNALAVRDGGEDSSDSRSDAGHDVAILHGDDSQLFENSMQLDQKSQLQNDETQILENKKKAAVVIQKMIRGFIARRKFQMEISNIRNRMIQYNHILAQEDEQIGIEEMEDKSVEAKLKKCALHGLTNDNLHVVHVAATVIDRVTDLVPSLLEKLVVELNGIKSITDVLIVADRGFSYTSILHPLLNVLEKLFTKIPEEVTNSHILPHLKILSPRLMLLMLKHSEVKELFIPIINTLTSIARRFPDKKQSSFSSSSYSIKQSLKKVKDQECRNKLVRLESICEDML”, the “soluble on expression in E. coli” value is “not soluble”.
With “MGSDKIHHHHHHMSHISTADIEQVILPSSRDLGGFSVRRALPAPMRQMVGPFIFLDSFGPVRFGEGEGIDTRPHPHIGLSTLTYLLEGELTHRDSERYVQAIRPGEVNVMVAGAGIVHSERTPEHQRATGGKLAGLQSWIALPKKSEETAPLFQHLDAGSLPTVSGEGIGMKLLAGNLHGRQSPATVFSDLFAAEVHLEAGARYRIDGEHVERAIFVVAGALEIVGQDGNFGQDRLLVFKPGSEIVVKATGPARFLAFGGEPLPEKRFIRWNFVATDQERIRHAADLWRERGFPGVPDDDEFIPLPENFR” the entry was “not soluble”.
“MKKVITYGTFDLLHWGHIKLLERAKQLGDYLVVAISTDEFNLQKQKKAYHSYEHRKLILETIRYVDEVIPEKNWEQKKQDIIDHNIDVFVMGDDWEGKFDFLKDQCEVVYLPRTEGISTTKIKEEIAGL”: the “soluble on expression in E. coli” value is “soluble”.
With “GAMDAEGLALLLPPVTLAALVDSWLREDCPGLNYAALVSGAGPSQAALWAKSPGVLAGQPFFDAIFTQLNCQVSWFLPEGSKLVPVARVAEVRGPAHCLLLGERVALNTLARCSGIASAAAAAVEAARGAGWTGHVAGTRKTTPGFRLVEKYGLLVGGAASHRYDLGGLVMVKDNHVVAAGGVEKAVRAARQAADFALKVEVECSSLQEAVQAAEAGADLVLLDNFKPEELHPTATVLKAQFPSVAVEASGGITLDNLPQFCGPHIDVISMGMLTQAAPALDFSLKLFAKEVAPVPKIH” the entry was “soluble”; with “SRSYRFSDYLHMSVSFSNDMDLFCGEDSGVFSGESTVDFSSSEVDSWPGDSIACFIEDERHFVPGHDYLSRFQTRSLDASAREDSVAWILKVQAYYNFQPLTAYLAVNYMDRFLYARRLPETSGWPMQLLAVACLSLAAKMEEILVPSLFDFQVAGVKYLFEAKTIKRMELLVLSVLDWRLRSVTPFDFISFFAYKIDPSGTFLGFFISHATEIILSNIKEASFLEYWPSSIAAAAILCVANELPSLSSVVNPHESPETWCDGLSKEKIVRCYRLMKAMAIENNRLNTPKVIAKLRVSVRASSTLTRPSDESSFSSSSPCKRRKLSGYSWVGDETSTSN”, “soluble”.
Consider “MQSSLSFSCGVKSTMAKSPVEVNLIPIEATPETFAEYGQVIEASRDGAGYGPNDAQLDLSKGIPRLYILRLKETPLGFFKITHHAKVTQCLGSIGGDIWYMGVAKPSLIEDDDDGRRVDTVKAKSGHLYIPPEVEEIRVFRFSGPKFVKLHRGTWHAGPLFSGSSIMDFYNLELSNTNVVDHTSHDFTKNNGVSFRFDT”, for which the “soluble on expression in E. coli” value is reported as “not soluble”.
Take “MKVLDSRDFAKVKAIAIERASYRNIGALAVYIGSMTGMRISEVLALTWPDIDTKLCVIHVTRSWDHLYGTGFKPTKTDSSVRDIEISPSVIELLNKIHQEQAASYLRTGYRDEDQMIMRDPRHNVITDSACNKALHVIQNKAGIPEDKQITFHGLRHSHVSYLISKGVDIYYISKRLGHSDVTITMKVYGHLLEHHHHHH”: the “soluble on expression in E. coli” value was “soluble”.
For the sequence “VRQYGDMPSRVVVLHGGPGGAGEVEPLARELGNRGHAVLEPFQTCQTVGGQVDELSSHIERFCAPPVTVIGWSWGAWLGCLLAAQRGMLVRRLILVGSGPFEESYASAIRTTKNSRLTKDQRKEISQLRPTEGDPAEVARFIALSDIADTYARDTSQQPFVAFDGAIHAAVWAEAVDMRRNGALLEAVCAIRCPVVAIHGDYDPRPSEGVQIPLRAALPSADFVQLERCGHKPWQETFAKADFYRALEA”, the “soluble on expression in E. coli” value is recorded as “not soluble”.
In the case of “SNAMTMKVGFIGLGIMGKPMSKNLLKAGYSLVVSDRNPEAIADVIAAGAETASTAKAIAEQCDVIITMLPNSPHVKEVALGENGIIEGAKPGTVLIDMSSIAPLASREISDALKAKGVEMLDAPVSGGEPKAIDGTLSVMVGGDKAIFDKYYDLMKAMAGSVVHTGDIGAGNVTKLANQVIVALNIAAMSEALTLATKAGVNPDLVYQAIRGGLAGSTVLDAKAPMVMDRNFKPGFRIDLHIKDLANALDTSHGVGAQLPLTAAVMEMMQALRADGHGNDDHSALACYYEKLAKVEVTR”, the “soluble on expression in E. coli” value is reported as “soluble”.
In the case of “MKSPIVSANLVTRDNDKIAEKTGNIYESLVVISRRARQISIKIKEELNSKLAEFASKEDNLEEIFENREQIEISKYYERMPKPSTLATEEFLEDKVMFRHTGIASATPRKEDEK” it was “not soluble”; in that of “MSLCRWAAYHGTPIFLEDVISRPGHSLIAQSAHAEECKTATNGDGFGVAWYDARPEPGLYRDVYPAWSDPNLRAVAHHVRSGLFLSHVRASTGSCISRNNCHPFAARRWCFMHNGQVGGFEAFRKQADMAIADEFYTYRKGSTDSEVLFLLALSEGLEHDPHGALARAIARLEGLSRAHGTTPHMRLSAAFSDGQTLYAARYSSDHIAPSVYYRYSHARQGWAVVSEPLETDEGDWTELRPGRMLTIGAEGAAERDFAPADLGRAAEGHHHHHH”, “soluble”.
With “SLRVMLPNKKALEIIRKYMKIYNGKNEKDIKERLIKELKEEHVLVETEDGTYTLKAEDEEEMMHSKVGALKEAIYKFAKPSKITDLSNPRVLDLCSGMGYNAIAALHYNKNAEIDMVEICEEVLFLTLFLDIPYKEHEIIKDKVREYFLNKIGIEYKSDYDNINLYVGDARKFIIKSDKKYNVVFHDAFSPKRDPTLYTYDFLKEIYKRMEDNGVLISYSSAIPFRSALVDCGFVISEKESVGRKRGITLAYKNPNFKPNRINEVDERVIALSVIALPYRDETLSLTKDKIIEDREERREKLKEKLIKIGKYLSTKQIKKGNIPEEILKIQKEDLNSSEIIKKMRLKFFKDANIFIL” the entry was “soluble”; with “MSLFLITNRKLVNREKYFNTIEEAGKYGVKNIILREKDLSTKELIKIYIKIKELVTEETNIIINSNIEATMILKEKFIHLSFKDFKRNLEEVKSLQVGVSVHSILEAIEADRLGASYILVSPIFETQCKKGVTPKGINFIKEIKEKVNCNVIALGGINEHNFKEVLGAGADDFACMSLLFMSNNIKKSLYTFKSLEGHHHHHH”, “not soluble”; with “MFARSAQRFSDGDRLEVGGWPVRLKVDGRARRISLRVDRARSEIVALSPTPRRLNEAVAFAQEKAGWIAKQLAALPERMSLAPGGVLRLNDKPFRLEVGAGRARIDGDRIVAPDDANWGLKVIRLAKREALTVLTERTAIHAAALGRPVPSVAIADPKARWGSCRPATSRAPAAIRYSWRLILAPAVVADYVAAHECAHLIEANHGPRFWALCEQLIGDPTPHRAWLRAHAAELHAIGALEHHHHHH”, “not soluble”.
Regarding “MRRILVLTKNILVEQTFQQQLQHLNYEVFCTNCCEETIEHELTFFNYFDAIVLSETLSQNDCLRLLGSLSSLEKPIYRRSQSMCNKREAEIWQERGIIRWLGLKDSLEDIREKIDTVDQSFAEVTAELLDDQVKKIRFTKNEQRFLKILYQHAHEGLDRDQICRLLWQKEPDASTKSQLSFVCKRVKQKFSDAGMNEEIITTYWGKGYQINEQILPYLEQTLFETAQ”, the “soluble on expression in E. coli” value is “not soluble”.
As to “MESVYLFSSGTLKRKANTICLETESGRKYIPVENVMDIKVFGEVDLNKRFLEFLSQKRIPIHFFNREGYYVGTFYPREYLNSGFLILKQAEHYINQEKRMLIAREIVSRSFQNMVDFLKKRKVRADSLTRYKKKAEEASNVSELMGIEGNAREEYYSMIDSLVSDERFRIEKRTRRPPKNFANTLISFGNSLLYTTVLSLIYQTHLDPRIGYLHETNFRRFSLNLDIAELFKPAVVDRLFLNLVNTRQINEKHFDEISEGLMLNDEGKSLFVKNYEQALRETVFHKKLNRYVSMRSLIKMELHKLEKHLIGEQVFGSEE”, the “soluble on expression in E. coli” value is recorded as “soluble”.
For the sequence “MGSDKIHHHHHHMNTLEKRQHEILTNPLHFCKKSGDFAKHSMSIKLSKNELFDVDFVTGIYFVEKGIVMKGTQIDDYIGYDQLLKPGDVCNFSSFMSSDLKRNIGAQLLSPSSSVITAVDRDFFIFMVEKHVSVEEFMLYQAKKEIMILQRRCLLNTLKVKDRVKHLIAAIGYEYGISNGDNIQIPQELSTTFLSKFMGITREYLSLTLSELKKEDYLLNTKIPVVINVEKLFNEIPYESLIL”, the “soluble on expression in E. coli” value is on record as “not soluble”.
As to “MGSDKIHHHHHHMTHSTDITTLARWFAADFSNQQQAFDNPPLFAHIRVCMRPLPYQLLNGLSLYLEQAYDITLNQPYRVRVLKLVPSENHIEIENYIIDQEAEFYGASRDPQRLKNLKTEYIKKLPGCTFITKWTGKSFKGEVEPGKGCTVVREGKSTYLKSYFEINEHKFISHDTGYDPETDQQVWGAIAGPFEFVRWASFADEVI”, the “soluble on expression in E. coli” value is given as “not soluble”.
On to “MSESGHRKGQAIIVQYSDSSSAYYAYAEGIEDDIIISSRYCPSNEDLLGKWIHLAIDDRSYACDTIQVIDDVFETKVFRGQVEVKINIQFDGRTARGMGMFYNDYFGYICDPNNVLHNTRDGANHNNVWVVRRNAEGLNSRWKVSSEQDDIQHIFPRPENVDKLETVVGVITTHAKLGDFYLVWSPSRPRSTICIAYKFCPSKSNLLGTWAEMRVNRSQRVQRPISVIDALYETRTIFGMTEFRIDFQQTRRFNPDYHLFYHEYFGGILDTLCIIDDVKEGGWYNGWIVYSQHSDASTYWRLAMKQTVLGPYNSPYSCLSPLQQDNNFNEPRNMDPNPPYRTRDRSRSMDRSTRHATRRVDEFTHKRRSPSPEVINVYKEPSRSHANELYDSQKNQYTSHEGHSTSSPTAENRQCHRSRSPEQSNFRPSQTVPGLSSMEQRKAHENVDWGPHRTKNVPPIRSATETPETDHRQDDQSVASTSALYLLDSPGPDPSPKLHLTSEEKELKKLKTKLSRICKLSLSFTANDSVSTPMQLHSLEEYEELIKLTNKFQ”, for which the “soluble on expression in E. coli” value was “not soluble”.

The record behind these values is the DeepSol protein solubility set.
